Molecular target: T1, Eglin C (secreted from E. coli W3110 via the MccV system, positive secretion supernatant)
T1 chain: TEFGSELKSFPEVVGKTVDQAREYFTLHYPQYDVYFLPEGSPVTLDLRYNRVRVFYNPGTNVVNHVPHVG

B1: neutrophil elastase (protein)
chain: IVGGRRARPHAWPFMVSLQLRGGHFCGATLIAPNFVMSAAHCVANVNVRAVRVVLGAHNLSRREPTRQVFAVQRIFENGYDPVNLLNDIVILQLNGSATINANVQVAQLPAQGRRLGNGVQCLAMGWGLLGRNRGIASVLQELNVTVVTSLCRRSNVCTLVRGRQAGVCFGDSGSPLVCNGLIHGIASFVRGGCASGLYPDAFAPVAQFVNWIDSIIQ
- neutrophil elastase (NE) activity assay (fluorogenic substrate, RFU over time): NE activity with Eglin C positive secretion was comparable to positive control, which is NE with purified Eglin C (1.5 µM) while NE activity with Eglin C negative secretion showed a similar level with the sample having only NE
